Assay results: US6649396

Target: native fiber receptors
Test: cell-based or functional assay

Substance | decrease in expression of luciferase after AdCMVLuc infection of mock-transfected HeLa cells and HeLa cells expressing the irrelevant sFv [%]
recombinant Ad2 knob (from UniProt P03275 388-582) | > 95
recombinant Ad5 knob (from UniProt P11818 386-581) | > 95
